Reference: IntAct's records for PubMed 24473200

B1: Nucleotide exchange factor SIL1 (Homo sapiens), Q9H173 (parent)
chain: MAPQSLPSSRMAPLGMLLGLLMAACFTFCLSHQNLKEFALTNPEKSSTKETERKETKAEEELDAEVLEVFHPTHEWQALQPGQAVPAGSHVRLNLQTGEREAKLQYEDKFRNNLKGKRLDINTNTYTSQDLKSALAKFKEGAEMESSKEDKARQAEVKRLFRPIEELKKDFDELNVVIETDMQIMVRLINKFNSSSSSLEEKIAALFDLEYYVHQMDNAQDLLSFGGLQVVINGLNSTEPLVKEYAAFVLGAAFSSNPKVQVEAIEGGALQKLLVILATEQPLTAKKKVLFALCSLLRHFPYAQRQFLKLGGLQVLRTLVQEKGTEVLAVRVVTLLYDLVTEKMFAEEEAELTQEMSPEKLQQYRQVHLLPGLWEQGWCEITAHLLALPEHDAREKVLQTLGVLLTTCRDRYRQDPQLGRTLASLQAEYQVLASLELQDGEDEGYFQELLGSVNSLLKELR

Variants of: B1
Settings: with bip_human HSPA5, P11021
Sequence of bip_human HSPA5, P11021 (P11021 whole entry): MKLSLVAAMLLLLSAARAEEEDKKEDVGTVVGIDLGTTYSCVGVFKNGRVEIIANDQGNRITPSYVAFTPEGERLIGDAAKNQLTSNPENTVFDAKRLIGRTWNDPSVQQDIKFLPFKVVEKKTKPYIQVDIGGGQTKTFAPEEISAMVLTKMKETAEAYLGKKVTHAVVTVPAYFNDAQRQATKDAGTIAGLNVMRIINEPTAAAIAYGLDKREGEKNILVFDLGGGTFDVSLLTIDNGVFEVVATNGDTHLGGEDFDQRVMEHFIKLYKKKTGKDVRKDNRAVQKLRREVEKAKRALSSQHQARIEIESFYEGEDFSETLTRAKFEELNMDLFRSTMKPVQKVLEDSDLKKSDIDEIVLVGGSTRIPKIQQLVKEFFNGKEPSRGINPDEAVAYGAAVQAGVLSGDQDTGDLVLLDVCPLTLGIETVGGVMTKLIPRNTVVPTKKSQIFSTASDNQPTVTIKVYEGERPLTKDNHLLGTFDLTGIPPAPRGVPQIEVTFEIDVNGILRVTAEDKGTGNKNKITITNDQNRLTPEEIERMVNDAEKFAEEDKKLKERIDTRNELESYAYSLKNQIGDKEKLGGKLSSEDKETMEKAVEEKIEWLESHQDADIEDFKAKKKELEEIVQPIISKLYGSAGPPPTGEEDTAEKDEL

effect of a mutation on the interaction	Variant
decreasing interaction strength	MAPQSLPSSRMAPLGMLLGLLMAACFTFCLSHQNLKEFALTNPEKSSTKETERKETKAEEELDAEVLEVFHPTHEWQALQPGQAVPAGSHVRLNLQTGEREAKLQYEDKFRNNLKGKRLDINTNTYTSQDLKSALAKFKEGAEMESSKEDKARQAEVKRLFRPIEELKKDFDELNVVIETDMQIMVRLINKFNSSSSSLEEKIAALFDLEYYVHQMDNAQDLLSFGGLQVVINGLNSTEPLVKEYAAFVLGAAFSSNPKVQVEAIEGGALQKLLVILATEQPLTAKKKVLFALCSLLRHFPYAQRQFLKLGGLQVLRTLVQEKGTEVLAVRVVTLLYDLVTEKMFAEEEAELTQEMSPEKLQQYRQVHLLPGLWEQGWCEITAHLLALPEHDAREKVLQTLGVLLTTCRDRYRQDPQLGRTLASLQAEYQVLASLELQDGEDEGYFQELLGSVNSLPKELR [L457P]
